Assay results: EP4741425A1 (Shenzhen Synthetica Pioneering Co., Ltd., dated 2026)

T1: CXCR2 on the surface of neutrophils (primary neutrophils from blood of C57BL/6 mice) (mouse, UniProt P35343 1-359)
T1 construct: whole, on cells; No CXCR2-specific control is reported
T1 sequence (looked up): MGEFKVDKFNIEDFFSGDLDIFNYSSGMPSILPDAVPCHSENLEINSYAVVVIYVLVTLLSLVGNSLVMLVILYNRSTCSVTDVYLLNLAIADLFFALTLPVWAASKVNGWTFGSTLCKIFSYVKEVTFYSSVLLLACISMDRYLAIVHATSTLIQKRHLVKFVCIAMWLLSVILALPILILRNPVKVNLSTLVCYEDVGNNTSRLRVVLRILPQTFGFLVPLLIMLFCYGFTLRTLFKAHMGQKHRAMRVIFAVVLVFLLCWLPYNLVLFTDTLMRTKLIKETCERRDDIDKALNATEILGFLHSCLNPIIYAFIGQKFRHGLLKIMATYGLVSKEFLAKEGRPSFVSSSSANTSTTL

B1: Nb127D01 (VHH)
VHH: EVQLVESGGGLVQAGESLRLSCAASGSTFDFKVMGWYRQPPGKQREGVAAIRLSGNMHYAESVKGRFAISKANAKNTVYLQMNSLRPEDTAVYYCKVNIRGQDYWGQGTQVTVSS
notes: Expressed in E. coli BL21(DE3) as signal peptide + nanobody + HA-His tag and purified on a nickel column by the His tag; The signal peptide is left out here as a secretion signal; also called Nb127D01-HA-his; not shown: HA-His tag linked directly to the C-terminus
B2: Nb163E3 (VHH)
VHH: EVQLVESGGGLVQPGGSVRLSCVASGRIFSSNAMGWFRQAPGKEREFVAAITWRSGGSAYYADSAKGRFTISRDNAKNTVYLQMNSLKPEDTAVYYCAAGGSSWLSFPPDYWGQGTQVTVSS
notes: Expressed in E. coli BL21(DE3) as signal peptide + nanobody + HA-His tag and purified on a nickel column by the His tag; The signal peptide is left out here as a secretion signal; also called Nb163E3-HA-his; not shown: HA-His tag linked directly to the C-terminus

Target: T1, CXCR2 on the surface of neutrophils …
Test: flow cytometry on primary mouse blood neutrophils, anti-His tag PE detection

Row | Binder | binding result
1 | B1 | binds
2 | B2 | binds
